This is an account of results in patent US20190315854A1 (BEIJING VDJBIO, published 2019).

Substitutions are numbered along the chain they refer to. Where two headings read alike, the source gives them in different places.

Assay [1] has as its target T1, sIL-6R (soluble IL-6 receptor; SBH Sciences) (human, UniProt P08887 20-365).
T1 construct: also called human IL-6R
T1 sequence: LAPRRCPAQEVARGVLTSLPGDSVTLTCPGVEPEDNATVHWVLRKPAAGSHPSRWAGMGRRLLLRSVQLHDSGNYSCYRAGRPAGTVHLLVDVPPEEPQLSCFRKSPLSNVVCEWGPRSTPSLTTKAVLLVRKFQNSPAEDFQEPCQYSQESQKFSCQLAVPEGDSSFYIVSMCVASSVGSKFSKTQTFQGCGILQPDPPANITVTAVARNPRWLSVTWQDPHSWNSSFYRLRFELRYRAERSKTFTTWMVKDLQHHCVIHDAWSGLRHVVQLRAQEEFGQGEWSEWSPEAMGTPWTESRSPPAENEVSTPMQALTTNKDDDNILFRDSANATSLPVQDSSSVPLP
Kind of assay: SPR (BIAcore 3000), antibody on chip, sIL-6R analyte, 25 C. The protocol:
(§1) All SPR measurements were performed on a BIAcore 3000 instrument (GE Biosciences, Piscataway, N.J.). BIAcore Software-BIAcore 3000 Control Software V3.2 was used for the operation and control of the BIAcore 3000 instrument. BiaEvaluation Software V4.1 was used for the analysis of SPR data from the BIAcore 3000 instrument and data was plotted using Graph Pad Prism Software Version 5. […] The indicated antibodies were used as the ligand for the construction of the reference channel of the chip. […] Each sample was injected for 3 min at a flow rate of 30 μL/min to allow for binding to chip-bound antibody. Next, binding buffer without analyte was sent over the chip at the same flow rate to allow for dissociation of bound analyte. After 500s, remaining bound analyte was removed by injecting regeneration solution (1M Formic acid). Data was analyzed by using the Kinetics Wizard and the manual fitting programs that are both included with the BiaEvaluation Software V4.1.
(In SPR one partner is held on a chip, and binding of the other changes the refractive index at the surface.)

In assay [2] the target is T1, sIL-6R (soluble IL-6 receptor; SBH …). Kind of assay: SPR (BIAcore 3000), antibody on chip, sIL-6R analyte, pH 7.4. The protocol: as §1
(§2) SPR measurements at pH 7.4 and pH 6.0 were performed in parallel and KD values calculated according to the protocol as detailed in Example 1. The pH dependence is calculated as the ratio between the KD value at pH 6.0 and the KD value at pH 7.4, which indicates the fold of affinity decrease from the pH7.4 to pH6.0. If the pH dependence of a subject antibody described herein is over 1, it means that the antibody binds to IL-6R in such a pH-dependent manner that its binding to IL-6R at pH7.4 is higher than at pH6.0. If the pH dependence of a subject antibody described herein is lower than 1, it means that the antibody binds to IL-6R in such a pH-dependent manner that its binding to IL-6R at pH6.0 is higher than at pH7.4.

The target is the same in assay [3]. Kind of assay: SPR; ratio of KD at pH 6.0 to KD at pH 7.4. The protocol:
as §1, §2

Assay [4] has the same target. Nature of the assay: SPR (BIAcore 3000), antibody on chip, sIL-6R analyte, 25 C. The protocol:
as §1
The source holds these as a separate data set.

Assay [5] deals with T2, IL-6 receptor on DS-1 cells (ATCC CRL 11102) (UniProt P08887 20-468, limits assumed).
T2 sequence (looked up): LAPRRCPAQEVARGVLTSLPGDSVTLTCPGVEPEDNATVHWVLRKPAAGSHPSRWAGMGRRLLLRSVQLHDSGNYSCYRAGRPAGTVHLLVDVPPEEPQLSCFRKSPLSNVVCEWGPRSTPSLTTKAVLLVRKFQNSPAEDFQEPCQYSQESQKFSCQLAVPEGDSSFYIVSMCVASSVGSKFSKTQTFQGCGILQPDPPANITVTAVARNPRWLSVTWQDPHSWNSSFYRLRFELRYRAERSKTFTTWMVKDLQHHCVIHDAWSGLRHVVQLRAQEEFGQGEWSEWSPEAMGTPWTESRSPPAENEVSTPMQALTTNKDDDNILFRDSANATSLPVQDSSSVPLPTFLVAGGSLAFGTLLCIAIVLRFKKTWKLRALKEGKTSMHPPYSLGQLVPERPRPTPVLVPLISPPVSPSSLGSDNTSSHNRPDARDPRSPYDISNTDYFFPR
Nature of the assay: cell-based or functional assay.

Assay [6] has as its target T1, sIL-6R (soluble IL-6 receptor; SBH …). Nature of the assay: SPR (BIAcore 3000), antibody on chip, sIL-6R analyte, pH 6.0. The protocol: as §1, §2
For assay [7] the target is unchanged. The assay is described as above. As for the experimental part: as §1, §2
This is another data set of the same source.

Assay [8] shares this target. Kind of assay: SPR (BIAcore 3000), antibody on chip, sIL-6R analyte, pH 7.4. The protocol:
as §1, §2
This is another data set of the same source.

The target is the same in assay [9]. Nature of the assay: SPR (BIAcore 3000), antibody on chip, sIL-6R analyte, 25 C. As for the experimental part:
as §1
The source holds these as a separate data set.

B1: 202# (antibody, human IgG1, kappa, V domains shown)
VH: QVQLQESGPGLVRPSQTLSLTCTVSGYSITSDHAWSWVRQPPGRGLEWIGYISYSGITTYNPSLKSRVTMLRDTSKNQFSLRLSSVTAADTAVYYCARVLARITAMDYWGQGSLVTVSS
VL: DIQMTQSPSSLSASVGDRVTITCRASQDISSYLNWYQQKPGKAPKLLIYYTSRLHSGVPSRFSGSGSGTDFTFTISSLQPEDIATYYCGQGNRLPYTFGQGTKVEIKR
In general, Kd refers to the concentration at which binding is half-saturated. A higher Kd goes with weaker binding. By koff is commonly meant the rate constant with which the complex falls apart. Lower therefore signals a long-lived complex. The kon is a measure of how fast the partners come together. Regarding B1, in assay [1], the Kd came to 0.0236 nM, the “Relative Affinity” value is 119 fold vs 25 (Tocilizumab), the koff is 3.17e-06 s⁻¹ and the kon turned out to be 134000 M⁻¹ s⁻¹. Further, in [2], the dissociation constant (Kd) was determined as 0.0288 nM, the koff was found to be 2.46e-06 s⁻¹ and the kon was determined as 85300 M⁻¹ s⁻¹. In addition, the “pH dependence (Fold of affinity decrease)” value in assay [3] is 0.74 fold. Moreover, in assay [4], the dissociation constant Kd was determined as 0.0288 nM, the “Relative Affinity” value was 99 fold vs 25 (Tocilizumab), the koff was found to be 2.46e-06 s⁻¹ and the kon worked out at 85300 M⁻¹ s⁻¹. In addition, the “IC50 (µg/ml), inhibition of DS-1 cell proliferation, MTS assay, IL6 2 ng/mL” value (“IC50 (µg/ml), inhibition” for short) in assay [5] was determined as 0.0686 µg/mL. In assay [6], the equilibrium dissociation constant (Kd) is 0.0214 nM, the koff was 6.1e-06 s⁻¹ and the kon stood at 284000 M⁻¹ s⁻¹.

B2: 206# (antibody, human IgG1, kappa, V domains shown)
VH: B1 VH with Y51F, I57M, V99S
VL: B1 VL
notes: also called Sample # 206
For the molecule B2, in assay [1], the dissociation constant Kd was 0.000587 nM, the “Relative Affinity” value was 4770 fold vs 25 (Tocilizumab), the off-rate constant (koff) amounted to 1.35e-07 s⁻¹ and the on-rate (kon) is 230000 M⁻¹ s⁻¹. In assay [2], the Kd came to 0.00075 nM, the off-rate (koff) was found to be 1.41e-07 s⁻¹ and the kon is 189000 M⁻¹ s⁻¹. Also, the “pH dependence (Fold of affinity decrease)” value in assay [3] stood at 28.4 fold. In assay [4], the dissociation constant (Kd) was found to be 0.00075 nM, the “Relative Affinity” value is 3800 fold vs 25 (Tocilizumab), the dissociation rate constant (koff) amounted to 1.41e-07 s⁻¹ and the kon stood at 189000 M⁻¹ s⁻¹. The “IC50 (µg/ml), inhibition” value in [5] stood at 0.0339 µg/mL. In [6], the affinity, expressed as Kd, was 0.0213 nM; the dissociation rate constant (koff) was found to be 8.78e-06 s⁻¹; the on-rate (kon) came to 412000 M⁻¹ s⁻¹.

B3: 231# (antibody, human IgG1, kappa, V domains shown)
VH: B1 VH with V99T, I103M, M106I, Y108F
VL: B1 VL with G89Q, R93T
notes: also called Sample # 231
On to B3, for which the “pH dependence (Fold of affinity decrease)” value in assay [3] stood at 95.5 fold. In assay [7], the Kd was found to be 0.107 nM, the koff was 3.1e-05 s⁻¹ and the kon turned out to be 291000 M⁻¹ s⁻¹. For the same molecule, in assay [8], the affinity, expressed as Kd, was 1.12 pM; the koff was determined as 1.48e-07 s⁻¹; the association rate constant (kon) is 132000 M⁻¹ s⁻¹. Also, in [9], binding was characterised by a dissociation constant (Kd) of 1.12 pM, the “Relative Affinity” value is 2820 fold vs 25 (Tocilizumab), the off-rate constant (koff) was determined as 1.48e-07 s⁻¹ and the kon was 132000 M⁻¹ s⁻¹.

B4: 209# (antibody, human IgG1, kappa, V domains shown)
VH: B1 VH with Y51F, I57M, V99S, M106I, Y108F
VL: B1 VL with G89Q, R93T
notes: also called Sample # 209
For B4, in assay [3], the “pH dependence (Fold of affinity decrease)” value turned out to be 65.5 fold. Besides, in assay [7], binding was characterised by a dissociation constant (Kd) of 0.0438 nM, the koff came to 2.99e-05 s⁻¹ and the on-rate constant (kon) is 683000 M⁻¹ s⁻¹. In [8], this molecule came in with a dissociation constant (Kd) of 0.669 pM, an off-rate (koff) of 1.37e-07 s⁻¹ and an on-rate (kon) of 204000 M⁻¹ s⁻¹. Moreover, in [9], the Kd was determined as 0.669 pM, the “Relative Affinity” value is 4720 fold vs 25 (Tocilizumab), the koff was found to be 1.37e-07 s⁻¹ and the on-rate constant (kon) came to 204000 M⁻¹ s⁻¹.

B5: 250# (antibody, human IgG1, kappa, V domains shown)
VH: B1 VH with I57M, V99S
VL: B1 VL with G89Q, R93T
notes: also called Sample # 250
As to B5, in assay [1], the Kd is 0.354 nM, the “Relative Affinity” value was 7.9 fold vs 25 (Tocilizumab), the dissociation rate constant (koff) amounted to 9.27e-05 s⁻¹ and the on-rate constant (kon) was found to be 262000 M⁻¹ s⁻¹.

B6: 237# (antibody, human IgG1, kappa, V domains shown)
VH: B1 VH with I57M, V99C, I103T
VL: B1 VL
notes: also called Sample # 237
B6: in [3], the “pH dependence (Fold of affinity decrease)” value turned out to be 2.63 fold. In [7], this molecule returned a Kd of 0.159 nM, a dissociation rate constant (koff) of 4.62e-05 s⁻¹ and a kon of 292000 M⁻¹ s⁻¹. For the same molecule, in assay [8], the dissociation constant Kd was determined as 60.5 pM, the koff amounted to 1.01e-05 s⁻¹ and the kon is 166000 M⁻¹ s⁻¹. Besides, in assay [9], binding was put at a Kd of 60.5 pM, the “Relative Affinity” value is 52.2 fold vs 25 (Tocilizumab), the koff stood at 1.01e-05 s⁻¹ and the on-rate constant (kon) is 166000 M⁻¹ s⁻¹.

B7: 251# (antibody, human IgG1, kappa, V domains shown)
VH: B1 VH with I57M, T58I, V99S
VL: B1 VL with G89Q, R93T
notes: also called Sample # 251
Consider B7, for which, in [1], the dissociation constant Kd was 0.805 nM, the “Relative Affinity” value is 3.5 fold vs 25 (Tocilizumab), the off-rate constant (koff) came out at 0.00014 s⁻¹ and the kon was 173000 M⁻¹ s⁻¹.

B8: 205# (antibody, human IgG1, kappa, V domains shown)
VH: B1 VH with Y51F, I57M, V99C, I103T
VL: B1 VL
In assay [2], B8 showed a Kd of 0.0122 nM, a koff of 2.14e-06 s⁻¹ and a kon of 175000 M⁻¹ s⁻¹. Further, the “pH dependence (Fold of affinity decrease)” value in assay [3] was 4.59 fold. In assay [4], the dissociation constant (Kd) worked out at 0.0122 nM, the “Relative Affinity” value is 234 fold vs 25 (Tocilizumab), the koff is 2.14e-06 s⁻¹ and the kon was determined as 175000 M⁻¹ s⁻¹. In [6], the affinity, expressed as Kd, was 0.056 nM; the koff turned out to be 2.15e-05 s⁻¹; the on-rate constant (kon) stood at 384000 M⁻¹ s⁻¹.

B9: 204# (antibody, human IgG1, kappa, V domains shown)
VH: B1 VH with Y51F, I57M, V99C
VL: B1 VL
As to B9, in assay [4], the Kd came to 0.0143 nM, the “Relative Affinity” value is 199 fold vs 25 (Tocilizumab), the koff is 3.28e-06 s⁻¹ and the kon was determined as 229000 M⁻¹ s⁻¹. Moreover, in [5], the “IC50 (µg/ml), inhibition” value was found to be 0.0362 µg/mL.
